Reference: paper PMC11145656 (Structure (London, England : 1993), 2023)

B1: CR3022 IgG1 (antibody, V domains shown)
VH: EVQLVQSGTEVKKPGESLKISCKGSGYGFITYWIGWVRQMPGKGLEWMGIIYPGDSETRYSPSFQGQVTISADKSINTAYLQWSSLKASDTAIYYCAGGSGISTPMDVWGQGTTVTVSS
VL: not shown
B2: Ab246 IgG1 (antibody, V domains shown)
VH: QVQLQESGPGLVKPSETLSLTCSVSGDSIGTYYWSWIRQSPEKGLEWIGYIHHSGKTNYNPSLKSRVTMSVDTSKNQFSLKLTSVTAADTAVYYCARSPIGYCSSTKCYIDKPFDSWGQGTLVTVSS
VL: QAVLTQPSSLSASPGASASLTCTLRGGINVVNQRLYWYQQKPGSPPRFLLKYKSDSDNFLGSGVPSRFSGSKDASANAGILLISEVQSEDEADYYCMMWHSSAYVFGGGTKLTVL

Assays:
Assay in all cases: BLI
[1] = molecular target: SARSr-CoV Rs4231-T4 S protein (bat SARS-related CoV Rs4231)
[2] = molecular target: SARSr-CoV Rs4874-GCN S protein (Bat SARS-like coronavirus isolate Rs4874, strain)
[3] = molecular target: SARS-CoV-1 RBD (SARS-CoV-1)

Row | Binder | binding result [1] | binding result [2] | binding result [3]
1 | B1 | binds | binds | 
2 | B2 |  | binds | binds
